Results taken from patent US20230287454.

Columns and labels:
Test in all cases: cell_activity
[1] = biological target: CD38 TALEN Left (synthetic construct) (UniProt Q56830); conditions: CD38-negative T cells, paired with CD38 right, simultaneous electroporation
[2] = biological target: CD38 TALEN Right (synthetic construct) (UniProt Q56830); conditions: CD38-negative T cells, paired with CD38 left, simultaneous electroporation
[3] = test system: CD52 TALEN Left (synthetic construct); conditions: CD52-negative T cells, paired with CD52 right, simultaneous electroporation
[4] = biological target: CD52 TALEN Right (synthetic construct) (UniProt Q56830); conditions: CD52-negative T cells, paired with CD52 left, simultaneous electroporation
[5] = biological target: TRAC TALEN Left (synthetic construct) (UniProt Q56830); conditions: TCR-negative T cells, paired with TRAC right, simultaneous electroporation with CD38 and CD52 TALEN
[6] = biological target: TRAC TALEN Right (synthetic construct) (UniProt Q56830); conditions: TCR-negative T cells, paired with TRAC left, simultaneous electroporation

CD38 left half-site gave an activity [1] of 66.1%.

CD38 right half-site was tested, and the activity [2] was 66.1%.

For CD52 left half-site, the activity [3] was 57%.

For CD52 right half-site, the activity [4] was 57%.

Substance TRAC left half-site has an activity [5] of 67.8%.

TRAC right half-site showed an activity [6] of 67.8%.
